Earlier results in publication PMC12489035.

Target: APP tail cytoplasmic tail (Homo sapiens) (UniProt P05067)
Sequence (P05067 724-770): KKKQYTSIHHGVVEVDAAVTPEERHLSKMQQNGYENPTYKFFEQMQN

Sequence of AP-4 mu4 subunit (O00189 whole entry): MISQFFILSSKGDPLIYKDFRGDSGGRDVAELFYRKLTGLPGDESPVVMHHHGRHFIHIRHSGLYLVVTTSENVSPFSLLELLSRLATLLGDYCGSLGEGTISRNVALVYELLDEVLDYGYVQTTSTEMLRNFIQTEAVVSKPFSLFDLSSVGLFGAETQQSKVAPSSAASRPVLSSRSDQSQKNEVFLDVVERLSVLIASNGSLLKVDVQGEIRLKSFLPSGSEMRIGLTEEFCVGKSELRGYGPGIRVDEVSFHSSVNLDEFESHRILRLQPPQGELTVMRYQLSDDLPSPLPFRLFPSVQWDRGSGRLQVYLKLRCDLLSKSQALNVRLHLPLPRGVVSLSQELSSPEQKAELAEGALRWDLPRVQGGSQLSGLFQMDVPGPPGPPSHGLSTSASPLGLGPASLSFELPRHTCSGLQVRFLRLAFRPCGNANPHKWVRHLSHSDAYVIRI

**Q.** With AP-4 mu4 subunit (from UniProt O00189) as the substance, how does the Kd read?
**A.** 27.7 µM
